Source: patent publication EP4803150A2 (Lyvgen Biopharma Holdings Limited, dated 2026)
Positions count from the first letter of the chain named.

B1: Ly2802 (multi-specific antibody)
chain 1: QVQLQQSGAELVRPGSSVKISCKASGYAFSSYWMNWVKQRPGQGLEWIGQIWPGDGDTNYNGKFKGKATLTADESSSTAYMQLSSLASEDSAVYFCARRETTTVGRYYYAMDYWGQGTTVTVSSASVAAPSVFIFPPSDEQLKSGTASVVCLLNNFYPREAKVQWKVDNALQSGNSQESVTEQDSKDSTYSLSSTLTLSKADYEKHKVYACEVTHQGLSSPVTKSFNRGECGGGGSGGGGSGGGGSGGGGSEVQLVESGGGLVQPGGSLRLSCAASGFTFSTYAMNWVRQAPGKGLEWVGRIRSKYNNYATYYADSVKGRFTISRDDSKNSLYLQMNSLKTEDTAVYYCVRHGNFGNSYVSWFAYWGQGTLVTVSSGGGGSDKTHTCPPCPAPELLGPSVFLFPPKPKDTLMISRTPEVTCVVVDVSHEDPEVKFNWYVDGVEVHNAKTKPREEQYNSTYRVVSVLTVLHQDWLNGKEYKCKVSNKALGAPIEKTISKAKGQPREPQVYTLPPSREEMTKNQVSLWCLVKGFYPSDIAVEWESNGQPENNYKTTPPVLDSDGSFFLYSKLTVDKSRWQQGNVFSCSVMHEALHNHYTQKSLSLSPGKGGGGSGGGGSGGGGSGGGGSQVQLVQSGAEVKKPGASVKVSCKASGYTFAGFEMHWVRQAPGQGLEWMGAIDPKTGGTDYNQKFKDRVTMTRDTSISTAYMELSRLRSDDTAVYYCARDLGYFDVWGQGTLVTVSS
chain 2: QVQLQQPGAELVKPGASVKMSCKASGYTFTSYNMHWVKQTPGRGLEWIGAIYPGNGDTSYNQKFKGKATLTADKSSSTAYMQLSSLTSEDSAVYYCARSTYYGGDWYFNVWGAGTTVTVSAASTKGPSVFPLAPSSKSTSGGTAALGCLVKDYFPEPVTVSWNSGALTSGVHTFPAVLQSSGLYSLSSVVTVPSSSLGTQTYICNVNHKPSNTKVDKKVEPKSCGGGGSGGGGSGGGGSGGGGSQAVVTQEPSLTVSPGGTVTLTCRSSTGAVTTSNYANWVQQKPGQAPRGLIGGTNKRAPWTPARFSGSLLGGKAALTITGAQAEDEADYYCALWYSNLWVFGGGTKLTVLGGGGSDKTHTCPPCPAPELLGPSVFLFPPKPKDTLMISRTPEVTCVVVDVSHEDPEVKFNWYVDGVEVHNAKTKPREEQYNSTYRVVSVLTVLHQDWLNGKEYKCKVSNKALGAPIEKTISKAKGQPREPQVYTLPPSREEMTKNQVSLSCAVKGFYPSDIAVEWESNGQPENNYKTTPPVLDSDGSFFLVSKLTVDKSRWQQGNVFSCSVMHEALHNHYTQKSLSLSPGKGGGGSGGGGSGGGGSGGGGSDIQMTQSPSSLSASVGDRVTITCRASQDIRSNLNWYQQKPGGAVKLLIYYTSRLHSGVPSRFSGSGSGTDYTLTISSLQPEDFATYFCQQSEKLPRTFGGGTKVEIR
chain 3: DIQLTQSPASLAVSLGQRATISCKASQSVDYDGDSYLNWYQQIPGQPPKLLIYDASNLVSGIPPRFSGSGSGTDFTLNIHPVEKVDAATYHCQQSTEDPWTFGGGTKLEIKSSASTKGPSVFPLAPSSKSTSGGTAALGCLVKDYFPEPVTVSWNSGALTSGVHTFPAVLQSSGLYSLSSVVTVPSSSLGTQTYICNVNHKPSNTKVDKKVEPKSC
chain 4: QIVLSQSPAILSASPGEKVTMTCRASSSVSYIHWFQQKPGSSPKPWIYATSNLASGVPVRFSGSGSGTSYSLTISRVEAEDAATYYCQQWTSNPPTFGGGTKLEIKRTVAAPSVFIFPPSDEQLKSGTASVVCLLNNFYPREAKVQWKVDNALQSGNSQESVTEQDSKDSTYSLSSTLTLSKADYEKHKVYACEVTHQGLSSPVTKSFNRGEC
notes: CD19/CD20/CD3/CD137
B2: Ly2944 (multi-specific antibody)
chain 1: B1 chain 1
chain 2: B1 chain 2 with H572R, Y573F
chain 3: B1 chain 3
chain 4: B1 chain 4
notes: CD19/CD20/CD3/CD137
B3: Ly2800 (multi-specific antibody)
chain 1: QVQLQQPGAELVKPGASVKMSCKASGYTFTSYNMHWVKQTPGRGLEWIGAIYPGNGDTSYNQKFKGKATLTADKSSSTAYMQLSSLTSEDSAVYYCARSTYYGGDWYFNVWGAGTTVTVSAASVAAPSVFIFPPSDEQLKSGTASVVCLLNNFYPREAKVQWKVDNALQSGNSQESVTEQDSKDSTYSLSSTLTLSKADYEKHKVYACEVTHQGLSSPVTKSFNRGECGGGGSGGGGSGGGGSGGGGSEVQLVESGGGLVQPGGSLRLSCAASGFTFSTYAMNWVRQAPGKGLEWVGRIRSKYNNYATYYADSVKGRFTISRDDSKNSLYLQMNSLKTEDTAVYYCVRHGNFGNSYVSWFAYWGQGTLVTVSSGGGGSDKTHTCPPCPAPELLGPSVFLFPPKPKDTLMISRTPEVTCVVVDVSHEDPEVKFNWYVDGVEVHNAKTKPREEQYNSTYRVVSVLTVLHQDWLNGKEYKCKVSNKALGAPIEKTISKAKGQPREPQVYTLPPSREEMTKNQVSLWCLVKGFYPSDIAVEWESNGQPENNYKTTPPVLDSDGSFFLYSKLTVDKSRWQQGNVFSCSVMHEALHNHYTQKSLSLSPGKGGGGSGGGGSGGGGSGGGGSQVQLVQSGAEVKKPGASVKVSCKASGYTFAGFEMHWVRQAPGQGLEWMGAIDPKTGGTDYNQKFKDRVTMTRDTSISTAYMELSRLRSDDTAVYYCARDLGYFDVWGQGTLVTVSS
chain 2: QVQLQQSGAELVRPGSSVKISCKASGYAFSSYWMNWVKQRPGQGLEWIGQIWPGDGDTNYNGKFKGKATLTADESSSTAYMQLSSLASEDSAVYFCARRETTTVGRYYYAMDYWGQGTTVTVSSASTKGPSVFPLAPSSKSTSGGTAALGCLVKDYFPEPVTVSWNSGALTSGVHTFPAVLQSSGLYSLSSVVTVPSSSLGTQTYICNVNHKPSNTKVDKKVEPKSCGGGGSGGGGSGGGGSGGGGSQAVVTQEPSLTVSPGGTVTLTCRSSTGAVTTSNYANWVQQKPGQAPRGLIGGTNKRAPWTPARFSGSLLGGKAALTITGAQAEDEADYYCALWYSNLWVFGGGTKLTVLGGGGSDKTHTCPPCPAPELLGPSVFLFPPKPKDTLMISRTPEVTCVVVDVSHEDPEVKFNWYVDGVEVHNAKTKPREEQYNSTYRVVSVLTVLHQDWLNGKEYKCKVSNKALGAPIEKTISKAKGQPREPQVYTLPPSREEMTKNQVSLSCAVKGFYPSDIAVEWESNGQPENNYKTTPPVLDSDGSFFLVSKLTVDKSRWQQGNVFSCSVMHEALHNHYTQKSLSLSPGKGGGGSGGGGSGGGGSGGGGSDIQMTQSPSSLSASVGDRVTITCRASQDIRSNLNWYQQKPGGAVKLLIYYTSRLHSGVPSRFSGSGSGTDYTLTISSLQPEDFATYFCQQSEKLPRTFGGGTKVEIR
chain 3: QIVLSQSPAILSASPGEKVTMTCRASSSVSYIHWFQQKPGSSPKPWIYATSNLASGVPVRFSGSGSGTSYSLTISRVEAEDAATYYCQQWTSNPPTFGGGTKLEIKSSASTKGPSVFPLAPSSKSTSGGTAALGCLVKDYFPEPVTVSWNSGALTSGVHTFPAVLQSSGLYSLSSVVTVPSSSLGTQTYICNVNHKPSNTKVDKKVEPKSC
chain 4: not shown
notes: CD19/CD20/CD3/CD137
B4: Ly2943 (multi-specific antibody)
chain 1: B3 chain 1
chain 2: B3 chain 2 with H575R, Y576F
chain 3: B3 chain 3
chain 4: not shown
notes: CD19/CD20/CD3/CD137
B5: Ly2453 (multi-specific antibody)
chain 1: not shown
chain 2: QVQLVQSGAEVKKPGASVKVSCKASGYTFTDFWMSWVRQAPGQGLEWMGQIYPNTGTTHSNEKFKGRVTMTRDTSTSTVYMELSSLRSEDTAVYYCARSYHISTTPNWFAYWGQGTLVTVSSASTKGPSVFPLAPSSKSTSGGTAALGCLVKDYFPEPVTVSWNSGALTSGVHTFPAVLQSSGLYSLSSVVTVPSSSLGTQTYICNVNHKPSNTKVDKKVEPKSCGGGGSGGGGSGGGGSGGGGSDIQMTQSPSSVSASVGDRVTITCRASQGIYSWLAWYQQKPGKAPNLLIYTASTLQSGVPSRFSGSGSGTDFTLTISSLQPEDFATYYCQQANIFPLTFGGGTKVEIKGGGGSDKTHTCPPCPAPEAAGPSVFLFPPKPKDTLMISRTPEVTCVVVDVSHEDPEVKFNWYVDGVEVHNAKTKPREEQYNSTYRVVSVLTVLHQDWLNGKEYKCKVSNKALPAPIEKTISKAKGQPREPQVYTLPPSREEMTKNQVSLSCAVKGFYPSDIAVEWESNGQPENNYKTTPPVLDSDGSFFLVSKLTVDKSRWQQGNVFSCSVMHEALHNRFTQKSLSLSPG
chain 3: DIQMTQSPSSLSASVGDRVTITCKASQNVYKKLEWYQQKPGKVPKVLIYHTNILQTGVPSRFSGSGSGTDYTLTISSLQPEDVATYYCYQWNSGPTFGGGTKVEIKRTVAAPSVFIFPPSDEQLKSGTASVVCLLNNFYPREAKVQWKVDNALQSGNSQESVTEQDSKDSTYSLSSTLTLSKADYEKHKVYACEVTHQGLSSPVTKSFNRGEC
notes: PD-L1/CD40
B6: Ly2454 (multi-specific antibody, human IgG1, kappa)
chain 1: not shown
chain 2: QVQLVQSGAEVKKPGASVKVSCKASGYTFTDFWMSWVRQAPGQGLEWMGQIYPNTGTTHSNEKFKGRVTMTRDTSTSTVYMELSSLRSEDTAVYYCARSYHISTTPNWFAYWGQGTLVTVSSASTKGPSVFPLAPSSKSTSGGTAALGCLVKDYFPEPVTVSWNSGALTSGVHTFPAVLQSSGLYSLSSVVTVPSSSLGTQTYICNVNHKPSNTKVDKKVEPKSCDKTHTCPPCPAPEAAGPSVFLFPPKPKDTLMISRTPEVTCVVVDVSHEDPEVKFNWYVDGVEVHNAKTKPREEQYNSTYRVVSVLTVLHQDWLNGKEYKCKVSNKALPAPIEKTISKAKGQPREPQVYTLPPSREEMTKNQVSLSCAVKGFYPSDIAVEWESNGQPENNYKTTPPVLDSDGSFFLVSKLTVDKSRWQQGNVFSCSVMHEALHNRFTQKSLSLSPGGGGGSGGGGSGGGGSGGGGSDIQMTQSPSSVSASVGDRVTITCRASQGIYSWLAWYQQKPGKAPNLLIYTASTLQSGVPSRFSGSGSGTDFTLTISSLQPEDFATYYCQQANIFPLTFGGGTKVEIK
chain 3: B5 chain 3
notes: PD-L1/CD40

The binders below were run against T1, CD137 (human, UniProt Q07011 24-186) (assay: FCM or ELISA, graded).
T1 construct: Whole on GS-H2-huCD137 reporter cells in the reporter assays; also called 4-1BB

Binding result, binds:
B1
B2
B3
B4

Each binder was assayed against T2, CD40 (human, UniProt P25942 21-193) (assay: FCM or ELISA, graded).
T2 construct: Whole on GS-H2-huCD40 reporter cells in the reporter assays
T2 sequence (P25942 21-193 limits assumed): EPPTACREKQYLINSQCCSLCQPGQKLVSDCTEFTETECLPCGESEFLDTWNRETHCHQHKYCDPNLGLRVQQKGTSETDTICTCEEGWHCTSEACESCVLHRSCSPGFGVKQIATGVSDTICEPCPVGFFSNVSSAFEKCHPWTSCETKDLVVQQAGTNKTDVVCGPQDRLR

Binding result, binds:
B5
B6

What follows are binders tested against T3, CD19 (human, UniProt P15391 20-556) (assay: CHO cells overexpressing CD19, graded).
T3 construct: whole, on cells
T3 sequence (looked up): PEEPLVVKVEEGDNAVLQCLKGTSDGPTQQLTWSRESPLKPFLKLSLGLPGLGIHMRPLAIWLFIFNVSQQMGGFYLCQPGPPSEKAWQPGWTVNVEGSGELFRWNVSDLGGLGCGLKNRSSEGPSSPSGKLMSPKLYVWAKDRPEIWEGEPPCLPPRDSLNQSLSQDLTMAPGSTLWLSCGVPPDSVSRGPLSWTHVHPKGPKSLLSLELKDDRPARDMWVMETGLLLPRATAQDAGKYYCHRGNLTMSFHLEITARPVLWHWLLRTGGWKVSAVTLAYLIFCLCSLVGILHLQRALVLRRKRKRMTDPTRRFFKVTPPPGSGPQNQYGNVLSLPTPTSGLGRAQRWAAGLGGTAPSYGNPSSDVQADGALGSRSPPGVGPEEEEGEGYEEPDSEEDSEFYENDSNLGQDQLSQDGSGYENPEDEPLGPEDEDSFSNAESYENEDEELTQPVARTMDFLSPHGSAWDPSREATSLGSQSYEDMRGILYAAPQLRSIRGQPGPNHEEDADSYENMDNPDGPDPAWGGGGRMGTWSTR

Binding result, binds:
B1
B2
B3
B4
